According to paper doi:10.1101/2020.12.07.415216:

Molecular target: SARS-CoV-2 RBD homotrimer (RBD appended onto a cystine-stabilized, hyperglycosylated GCN4 trimerization tag) (SARS-CoV-2)
Test: SDS-PAGE under non-reducing conditions

## SARS-CoV-2 RBD homotrimer (RBD appended onto a cystine-stabilized, hyperglycosylated GCN4 trimerization tag)
  stoichiometry N: 3
